Laboratory results as given in the DeepSol protein solubility set.

Test: soluble on expression in E. coli; label from the status in PepcDB or PDB records

| Sequence | soluble on expression in E. coli |
| --- | --- |
| MSLKGNLDVIPQPQEIVLARDTTPFIIDRSTTIVYPATNEKMHRTADFLATFIKEMTGTEVHVSDKEKSSNAIILAVDSTMGHPEGYKLQITPEKVLLTGGSEAGVFYGIQTIHKALPILKDGKVAAALPAGTVTDFPRFRYRGFMIDVGRHFFPVSYLKQMIDLMALHNINYFHWHLTEDQGWRIEIKKYPKLTEIGSKRDSTIIDWETKKFDGKPHSGFYTQDEAREIVRYAADRFITVVPEIDLPGHTTAALASYPELGCTGGPYKVLCSFGVFPDVLCAGNDQTLQFTKDVLDEIMDIFPSEYIHIGGDECPKSRWEKCPKCQAKIKELGIKALPKHSKENQLQTYFMSELEKEINAHGRRMLGWDEVLEGGLTPNSTIMSWRGIQGGIEAARQHHDVIMTPIQRLYFSNPRINKMTGFEWMNRVYNFEPVPAELTDAEKKFVIGTQGCIWTEWTADSTKMEWQILPRMAALSEIQWTLPEHKNFERFMERLPEMLKIYSSLDYGYREDVFAADTLKTHKEGHHHHHH | soluble |
| MSLKGVSYTSEQKTRIVLEMLKEEETLAQIASRYQVTSQTLNSWKRQFLANASLAFEPAKALQEYKDQIQSKEQEIEELQKQLGKSVAEKEWLAKKLEGLDLSNKKALVESKPETISIARQCELLGISRSAYYYKPISLSRANLQIMHAIGEIATDNAEYGYRFIHQQLLEDGYRIGKERVLKYMRVMNLRALYPKKRKHTSIHNLEYKRYPYLLSQYHNSKKQVVVDRPGEVWSGDITYIRMNGGFMYLCAIIDWHSKAILAYKISNTMDASLAVDTLKEALQTHPAPRIFNSDQGSQYTSEEHTRLLEEHQIAISMNGKGRSIDNIAIERFFRTLKHSSIYINDYRTIKELKEGIKNYIHKYNFKRFHSSIEYRKPMNVYLEAQTVAEGHHHHHH | not soluble |
| MSLKHGRTRLIGLIIADITNPYSVNVMSGIEAACREKGFTLLVCNTNNELDQELHYLDLLRSYQVEGIVVNAVGMREDGLNRLQQSALPMVLIDRKIPDFACDVVGLDNAQAATTATEHLVEKGFEAILFLSEPLGSVNTRRERLSAFRATLARHHGVVAENAEVQLNDGAMLDNVLRQFHARHRGMRKAVISANGALTLQVARALKRVGLIWGSDIGLLGFDELEWAELAGVGITTLKQPTWQIGYAAVEQVIRRIAGTNDPIRERVFSGELIVRGSTSREGHHHHHH | soluble |
| MSLKHMLIAGGGIGGLSAAISLRKAGFSVTLCEAASENRKTGAGILQPQNALAVLKELGVFEDCCKHGFQTEWFKTFDEQGNLLFQVSESFLDDSLPGRNNILRKTLNDILMKHAEAVGVDIKWGKKVVAYEETAESVTALCEDGEKMQADILAGFDGIHSVVRDKMLQKETEKEHLGMGAWRFYIELPDYTFEDATFMYRSGDTQIGVVPLAQHAGYVFVLQPCTSDYWDEEDTRFDRVKEILSGFRGLDFVTKHMSKQHPVIFNKLEQVAVQEPWHKGRVIIGGDAAHAGAPTLAQGAAMAIEDAIVLAEELQNHADHETALQAYYKRRAPRALKVQNLSSEIVRRRLKGEPGAEELIGECYAVLREGYEGGSHHHHHH | soluble |
| MSLKIAMIGLGDIAQKAYLPVLAQWPDIELVLCTRNPKVLGTLATRYRVSATCTDYRDVLQYGVDAVMIHAATDVHSTLAAFFLHLGIPTFVDKPLAASAQECENLYELAEKHHQPLYVGFNRRHIPLYNQHLSELAQQECGALRSLRWEKHRHALPGDIRTFVFDDFIHPLDSVNLSRQCNLDDLHLTYHMSEGLLARLDVQWQTGDTLLHASMNRQFGITTEHVTASYDNVAYLFDSFTQGKMWRDNQESRVALKDWTPMLASKGFDAMVQDWLQVAAAGKLPTHIIERNLASHQLAEAICQQITQQVTKGEGGSHHHHHH | soluble |
| MSLKIILVEDEENLARLLKEAIGDNFHSFTVAKDGIEGIEFFKKIRPDIVITDIMMPNLDGLKMAKELKRINPNIPIIILSAFSEKEKLLSAIDVGITKYFIKPFDAEELLEYISSITSRIENKILKLSDCYIFNKNTSSLYKNEKYIALSKNDIKFLYLLLDSKNRTVDDISIKEALWGGDASDERLRTFIKRFREKTSKMLIKNIKGFGYQLLLNEGHHHHHH | not soluble |
| MSLKIKLETYYVCKGELAMNPEVSQLLEQIELRKDELLELTKTLIRFETPAPPARNTNEAQQFVADFLRKRNFSVDKWDVYPNDPNVVGVKKGIESETHKSLIINGHMDVAEVSADEAWEKNPFEPFIKDGWLVGRGAADMKGGLAGALFAIQLLEEAGIELPGDLIFQSVIGEEVGEAGTLQCCRRGYDADFAVVVDTSDLHMQGQGGVITGWITVKSPQTFHDATRRQMIHAGGRLFGASAIEKMMKIVQSLQELERHWAVMKTYEGYPSGTTTINPAVIEGGRHAAFIADECRLWITVHFYPNETHEQIIKEIEEYIGKVAAADPWLSENPPQFKWGGESMIVDRGEIFPSLEIDSEHAAVKTLSSVHESVLSKHAILDMSATVTDGGWFSEFHIPAVIYGPGTLEEAHSINEKVEVEQLIEFTKVITAFIYEWCHTKEGHHHHHH | soluble |
| MSLKIKVYLYTRVSTSIQIEGYSLEAQKSRMKAFAIYNDYEIVGEYEDAGKSGKSIEGRIQFNRMMEDIKSGKDGVSFVLVFKLSRFARNAADVLSTLHIMQDYGVNLICVEDGIDSSKDAGKLMISVLSAVAEIERENIRIQTMEGRIQKAREGKWNGGFAPYGYKLEDGKLFINEEEAVAIRTIFDQYVNTTIGANGISKYLENHGIRKIPRQNGKNPLFDAGLIRKILKNPVYNGKIAFGRRTLEKVHGTRNEYKQVEQDEYLISEGIHEAIVSDEVWQAAQVKLKSQAKKYEHVNKGKDTRTHLLSGIVKCPICGVGMFGNKCIKKKKDGTKYKDFYYYGCNHRQMIRGHKCTFSKQIREELLDDAVAEVIVKIVSNPKFASMMQEKINMKVDTSEIEKEIDNYQKELRKSHSTKFKLIEEIDNLDVEDKHYKRRKQDLDDRLYRMYDKIDELESSLIDAKAKKQTIEAEKLTGDNIYKVLIYFDKLYKVMNDVERRQLISALISEIQVYEEKQSNGQWLKSITFKLPIIEENLNIDLDNDEQVECVSLLEKRSEGHHHHHH | soluble |
| MSLKILFSPSESKNENCTKNPIDENSFIFKELFPYRMEALKHYGEFIKNASLKNLQELFGIKNENEIDKFKHDLKQAPTQEAIMLYTGVSYEYLNFKALDKKSQAYILENTLIFSNLFGVVRANDTLPFYKFKQGAKIGNFTIEKFYKEHFSKALDEYLENEEILDLRAGFYDKFYTPKKKFYTYKFVKNGKVISHFAKAYRGILLSISAKNQVKNNKELLANLPSNLKLKEIQIKGLKEEIALEILDEGHHHHHH | soluble |
| MSLKILFVAAEGAPFSKTGGLGDVIGALPKSLVKAGHEVAVILPYYDMVEAKFGNQIEDVLHFEVSVGWRRQYCGIKKTVLNGVTFYFIDNQYYFFRGHVYGDFDDGERFAFFQLAAIEAMERIDFIPDLLHVHDYHTAMIPFLLKEKYRWIQAYEDIETVLTIHNLEFQGQFSEGMLGDLFGVGFERYADGTLRWNNCLNWMKAGILYANRVSTVSPSYAHEIMTSQFGCNLDHILKMESGKVSGIVNGIDADLYNPQTDALLDYHFNQEDLSGKAKNKAKLQERVGLPVRADVPLVGIVSRLTRQKGFDVVVESLHHILQEDVQIVLLGTGDPAFEGAFSWFAQIYPDKLSTNITFDVKLAQEIYAACDLFLMPSRFEPCGLSQMMAMRYGTLPLVHEVGGLRDTVRAFNPIEGSGTGFSFDNLSPYWLNWTFQTALDLYRNHPDIWRNLQKQAMESDFSWDTACKSYLDLYHSLVNEGHHHHHH | soluble |
| MSLKILVVGPSWVGDMMMSQSLYRTLRARYPQAIIDVMAPAWCRPLLSRMPEVNEAIPMPLGHGALAIGERRKLGHSVRERRYDRAYVLPNSFKSALVPFFANIPLRTGWRGEMRYGLLNDARVLDKDAWPLMVERYVALAYDNGVMRCAKDLPQPLVWPQLQVNEGEKSQACSAFNLSNDRPIIGFCPGAEFGPAKRWPHYHYAALAKKLIDDGYQIALFGSAKDNEAGKEIIAAISSEQQAWCRNLAGETQLEQAVILIAACKAVVTNDSGLMHVAAALDRPLVALYGPSSPDFTPPLSHKARVIRLITGYHKVRKGDAAEGYHQSLIDITPERVLQELNELLAEKTEHEEAEGGSHHHHHH | soluble |
| MSLKIRSITATPINLRLEAPYGWVFGELDGFSQTIVEVETEDGLIGLGEAPTPAAAAIINDVLAERLVGRDAFDIAGAEHVCLPYWTGVQSINDRTRIMAFGAIEMALWDLRGKAWNQPLYQLLGGAVRKDIPFTDYFSLRGDGPKVKGETTPEEVADYCVELHETHGTTFFEGKFSTEDPKVSLRMVELIRAKLGDEAMIRIDSNQAYSLATARRLARPLEELGVRNWEDPVATIEEMRQLRQHCSIPFSTHNIDIARAMDLKVPDAFVGNPTAHGGIGRLLRFVGACEHAGVDFWCYSGDSGIGSAAYLHLCAALGWIREPNQSLFRMQPMDITEEGPFSPRNNVVRVPEGPGLGVTLSRKNLAACHRDFAENGPCNKYHDPAKPGTYRRLPLNEGHHHHHH | soluble |
| MSLKITGLRTRRIHIPFDKPIGTSIHRIEGVSGLLVWLDTDEGITGESYLWAIGRHRVPVLESIVRMLGERAIGKDPRDTTARFDEMWTEINFLGHKGVSLFGIAAIDWACWDILGQSLGASVSRLLGRRRDRVTAYASGGLWASMTIPELEAQARDFVAQGFTAVKMRIGKPDIGEDIERVAAVRSAIGSRIKLMADANQGLSVNHAIRLGRKLETFDLVWFEEPVQAYDLEGSARVAAEIDTPIASGETEYGRYGFRDMLERKSADVLMPDLERVGGVTEWVRVAHMAAAYDVPVSPHIFSEHSLQLCGAISNVNYAEHMPWFAELFQERLEMVDGDLLIPDRPGMGFRFDPDAVERYADEGHHHHHH | soluble |
| MSLKITHVEVHRIDVPAASPPFRWRDGLSGSAPVGDGAVLHIGTDEGAEGVSVFARPGAYSTLRDLVDRVFRAELVGADPFQREWLWHRVWELDRIHELPLPTLGLIDIALWDLAGRYHGEPVWRLLGGFREAIPAYASTSTFSSVAEFLDVADQCLALGYRGIKLHAWGDARRDAELCLALRDHVGPDVPLMYDGSAGFDLPDAIRLGRALSEADYLWYEEPIREFSISAYQRLAEAVDVPLLVAETSDGAHMNAADFIRAGAATFGVRAGTTLRGGITGAMRTAHLADAFRLRAEVHGSDIPNHHLCMAISNTTYYESLVTSVNVVRERHVDDQGLVHAPAGPGIALPLDFGYGNELLPFVEQPREGHHHHHH | soluble |
| MSLKIVLIAPYRDLLETAITVKKDLNVDIELELGDLSEGVKVAREWEKKGVDIIISRGGTYQLIKESVSVPVVEIKVSAFDILRQFNGLIGCKEIIGVAGYKNVIYGCEVIGEILDLNLIKVVIEKEEEGLRQVAAAKEKGVSLIIGDTIGAYSAKRLGLKSRLITSGKEAVAAAVSESFRLAQALKAEKEKAEQIRTIVDFVHDGIIAIDKEGRVSIYNRMAEKIFKRPPAEAVGRKVETVVPNTRLYEVIETGKPQIGELQEVLGTMITTNRVPIVVGNEVVGAVATFQDVTMLQKVEQKIRRQLADRGLVAMYTFDEGHHHHHH | soluble |
| MSLKKIGVLGMGYVGIPAAVLFADAPCFEKVLGFQRNSKSSGYKIEMLNRGESPLKGEEPGLEELIGKVVKAGKFECTPDFSRISELDAVTLAIQTPFANPKDLEPDFSALIDGIRNVGKYLKPGMLVVLESTITPGTTEGMAKQILEEESGLKAGEDFALAHAPERVMVGRLLKNIREHDRIVGGIDEASTKRAVELYSPVLTVGQVIPMSATAAEVTKTAENTFRDLQIAAINQLALYCEAMGINVYDVRTGVDSLKGEGITRAVLWPGAGVGGHCLTKDTYHLERGVKIGRGELDYPEGADSIYVLARKVNDFMPAHMYNLTVAALERLGKKMDGSKVAMLGWAFIKDSDDARNTPSEPYRDLCLKAGASVMVHDPYVVNYPGVEISDNLEEVVRNADAIVVLAGHSAYSSLKADWAKKVSAKANPVIIDGRNVIEPDEFIGKGFVYKGIGREGHHHHHH | not soluble |
